Experimental data published in patent US20160369268.

Experiments:
Test in all cases: cell_activity
[1] = tested on: TALETRE#4-KRAB (synthetic (Xanthomonas TALE)); conditions: 50 ng, against TALETRE#4-VP16-induced AmCyan
[2] = tested on: TALECMV-KRAB (synthetic (Xanthomonas TALE)); conditions: 100 ng, CMV-mKate-PEST in HEK293; only 19% on TRE/CMVmin AmCyan at 50 ng
[3] = tested on: TALETRE#3-KRAB (synthetic (Xanthomonas TALE)); conditions: 50 ng, against TALETRE#4-VP16-induced AmCyan

With “ATCAGTGATAGAGAAC (double strand) [TRE target of TALETRE#4]” the activity [1] was 80 % repression.
Work on “CTATATAAGCAGAGCT (double strand) [CMV TATA box region target]” yielded an activity [2] of 93 % repression.
In the case of “CCCTATCAGTGAT (double strand) [TRE target of TALETRE#3]”, the activity [3] is reported as 84 % repression.
